Measurements taken from the supplement of paper PMC7877785.
± gives the uncertainty stated by the source.

Assay: self-splicing fitness, log relative to wild type (ln ratio); higher = more splicing; Tetrahymena group I intron in knt gene, E. coli kanamycin selection, DiMSum; sequences stand for … in CUCUCU…GGAGGGAAAAGUUAUCAGGCAUGCACCUGGUAGCUAGUCUUUAAACCAAUAGAUUGCAUCGGUUUAAAAGGCAAGACCGUCAAAUUGCGGGAAAGGGGUCAACAGCCGUUCAGUACCAAGUCUCAGGGGAAACUUUGAGAUGGCCUUGCAAAGGGUAUGGUAAUAAGCUGACGGACAUGGUCCUAACCACGCAGCCAAGUCCUAAGUCAACAGAUCUUCUGUUGAUAUGGAUGCAGUUCACAGACUAAAUGUCGGUCGGGGAAGAUGUAUUCUUCUCAUAAGAUAUAGUCGGACCUCUCCUUAAUGGGAGCUAGCGGAUGAAGUGAUGCAACACUGGAGCCGCUGGGAACUAAUUUGUAUGCGAAAGUAUAUUGAUUAGUUUUGGAGUACUCGUGGUCG
Method in brief: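 DiMSum derived fitness as the error-weighted combination of fold changes across replicates, kanamycin versus no kanamycin, normalised to wild type. E. coli BL21(DE3) held the library, which randomised all eight P1ex-region intron nucleotides within the knt kanamycin-resistance gene on pET-22b(+). Six replicate transformations grew overnight at 37°C or 30°C on LB agar with or without 25 μg/mL kanamycin, also containing 100 μg/mL carbenicillin, 50 μM IPTG and 0.2% rhamnose, and pooled colonies were amplicon-sequenced on an Illumina HiSeq 2500.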

Sequence	self-splicing fitness (ln) (30 °C)	self-splicing fitness (ln) (37 °C)
GUGAAGCAAUAUUACGAUCU	-1.26 ± 0.13	-0.0185 ± 0.12
GUGAAGCAAUAUUACGCAAA	-2.12 ± 0.12	-1.52 ± 0.16
GUGAAGCAAUAUUACGCACU	-3.68 ± 0.47	-2.19 ± 0.29
GUGAAGCAAUAUUACGCAGA	-3.85 ± 0.25	-2.39 ± 0.25
GUGAAGCAAUAUUACGCAUU	-2.66 ± 0.27	-1.05 ± 0.15
GUGAAGCAAUAUUACGCGCG	-0.674 ± 0.083	0.0224 ± 0.12
GUGAAGCAAUAUUACGCUAA	-1.25 ± 0.15	-0.0384 ± 0.17
GUGAAGCAAUAUUACGCUAU	-1.95 ± 0.15	-0.0655 ± 0.15
GUGAAGCAAUAUUACGGCAA	0.587 ± 0.084	0.552 ± 0.11
GUGAAGCAAUAUUACGGGCG	-0.39 ± 0.052	-0.217 ± 0.065
GUGAAGCAAUAUUACGGGGA	-2.85 ± 0.22	-2.64 ± 0.29
GUGAAGCAAUAUUACGGGUC	-2.26 ± 0.21	-2.21 ± 0.28
GUGAAGCAAUAUUACGGUUA	-0.24 ± 0.054	0.132 ± 0.086
GUGAAGCAAUAUUACGUAGA	-2.33 ± 0.17	-0.683 ± 0.17
GUGAAGCAAUAUUACGUCCA	-0.721 ± 0.16	0.775 ± 0.22
GUGAAGCAAUAUUACGUCUU	-1.6 ± 0.067	-0.642 ± 0.078
GUGAAGCAAUAUUACGUGGG	-3.96 ± 0.2	-2.13 ± 0.15
GUGCAGCAAUAUUACGAAGA	-2.35 ± 0.46	-0.855 ± 0.15
GUGCAGCAAUAUUACGAAGC	-1.05 ± 0.14	-1.36 ± 0.19
GUGCAGCAAUAUUACGACCA	-0.711 ± 0.1	-0.667 ± 0.13
GUGCAGCAAUAUUACGACUA	-0.908 ± 0.24	-0.48 ± 0.26
GUGCAGCAAUAUUACGACUU	-0.219 ± 0.087	0.408 ± 0.093
GUGCAGCAAUAUUACGAGAG	-2.23 ± 0.15	-2.42 ± 0.2
GUGCAGCAAUAUUACGAGUC	-2.57 ± 0.1	-0.808 ± 0.099
GUGCAGCAAUAUUACGAGUG	-2.2 ± 0.15	-2.11 ± 0.17

Sequence	self-splicing fitness (ln) (30 °C)	self-splicing fitness (ln) (37 °C)
GUGCAGCAAUAUUACGAUCA	-1.14 ± 0.1	-0.487 ± 0.12
GUGCAGCAAUAUUACGAUGC	-0.245 ± 0.11	0.208 ± 0.17
GUGCAGCAAUAUUACGCAAG	-1.5 ± 0.1	-0.974 ± 0.12
GUGCAGCAAUAUUACGCAAU	-1.75 ± 0.085	-1.37 ± 0.12
GUGCAGCAAUAUUACGCACC		-1.79 ± 0.35
GUGCAGCAAUAUUACGCACG	-2.88 ± 0.38	-2.85 ± 0.45
GUGCAGCAAUAUUACGCCGU	-2.77 ± 0.23	-0.412 ± 0.18
GUGCAGCAAUAUUACGCGAC	-3.59 ± 0.34	-1.8 ± 0.2
GUGCAGCAAUAUUACGCGAU	-3.78 ± 0.31	-1.45 ± 0.31
GUGCAGCAAUAUUACGCGGU	-2.93 ± 0.19	-2.94 ± 0.32
GUGCAGCAAUAUUACGGAAC	-2.17 ± 0.23	-1.12 ± 0.33
GUGCAGCAAUAUUACGGAAU	-2.01 ± 0.073	-0.012 ± 0.087
GUGCAGCAAUAUUACGGCAG	-2.71 ± 0.33	-1.04 ± 0.25
GUGCAGCAAUAUUACGGGCG	-1.82 ± 0.092	-0.512 ± 0.11
GUGCAGCAAUAUUACGUAAA	-0.491 ± 0.084	-1.05 ± 0.11
GUGCAGCAAUAUUACGUAAC	-1.63 ± 0.15	-0.239 ± 0.14
GUGCAGCAAUAUUACGUCCG	-3 ± 0.22	-0.37 ± 0.18
GUGCAGCAAUAUUACGUCGG	-2.84 ± 0.16	-1.47 ± 0.17
GUGCAGCAAUAUUACGUGUG	-2.95 ± 0.11	-1.33 ± 0.1
GUGCAGCAAUAUUACGUGUU	-1.99 ± 0.081	-1.22 ± 0.084
GUGCAGCAAUAUUACGUUUU	-2.08 ± 0.096	-1.69 ± 0.096
GUGGAGCAAUAUUACGAAGA		-2.05 ± 0.49
GUGGAGCAAUAUUACGAGCG	-3.52 ± 0.38	-1.62 ± 0.31
GUGGAGCAAUAUUACGAGGG	-4.4 ± 0.33	
GUGGAGCAAUAUUACGAUGG		-2.9 ± 0.38

Sequence	self-splicing fitness (ln) (30 °C)	self-splicing fitness (ln) (37 °C)
GUGGAGCAAUAUUACGCAUA		-1.1 ± 0.4
GUGGAGCAAUAUUACGCCUC	-3.07 ± 0.3	-1 ± 0.25
GUGGAGCAAUAUUACGCCUG	-2.7 ± 0.23	
GUGGAGCAAUAUUACGGCUG	-2.49 ± 0.21	-2.1 ± 0.32
GUGGAGCAAUAUUACGGGAA	-2.15 ± 0.28	-3.23 ± 0.35
GUGGAGCAAUAUUACGGGGU	-3.24 ± 0.44	-2.26 ± 0.42
GUGGAGCAAUAUUACGGUCC	-2.12 ± 0.19	-1.91 ± 0.24
GUGGAGCAAUAUUACGUAAA	-1.5 ± 0.21	-2.18 ± 0.47
GUGGAGCAAUAUUACGUCAA	-1.28 ± 0.33	-1.78 ± 0.32
GUGGAGCAAUAUUACGUCAG		-2.43 ± 0.46
GUGGAGCAAUAUUACGUGAU	-2.49 ± 0.12	-1.6 ± 0.12
GUGGAGCAAUAUUACGUUAC	-2.99 ± 0.24	-2.5 ± 0.3
GUGGAGCAAUAUUACGUUGA	-3.13 ± 0.47	-1.5 ± 0.25
GUGGAGCAAUAUUACGUUUA	-3.33 ± 0.2	-2.26 ± 0.33
GUGUAGCAAUAUUACGAAUC	-1.43 ± 0.17	-0.973 ± 0.14
GUGUAGCAAUAUUACGACGA	-0.571 ± 0.14	-0.584 ± 0.16
GUGUAGCAAUAUUACGACGC	-1.8 ± 0.18	-0.0871 ± 0.22
GUGUAGCAAUAUUACGAUAC	-2.23 ± 0.25	-1.01 ± 0.25
GUGUAGCAAUAUUACGAUCC	-0.838 ± 0.21	-0.041 ± 0.46
GUGUAGCAAUAUUACGCCGG	-2.93 ± 0.27	-2.16 ± 0.38
GUGUAGCAAUAUUACGCUCU	-1.72 ± 0.23	-0.839 ± 0.22
GUGUAGCAAUAUUACGGCUA	-1.84 ± 0.34	-2.77 ± 0.32
GUGUAGCAAUAUUACGGUGG	-3.98 ± 0.35	-3.36 ± 0.31
GUGUAGCAAUAUUACGUAAC	-1.66 ± 0.14	-0.0998 ± 0.14
GUGUAGCAAUAUUACGUCAU	-3.23 ± 0.2	-2.63 ± 0.17

Sequence	self-splicing fitness (ln) (30 °C)	self-splicing fitness (ln) (37 °C)
GUGUAGCAAUAUUACGUCCC	-0.132 ± 0.21	-0.385 ± 0.23
GUGUAGCAAUAUUACGUCUA	-1.13 ± 0.24	0.254 ± 0.23
GUGUAGCAAUAUUACGUCUG	-1.08 ± 0.17	-1.74 ± 0.27
GUGUAGCAAUAUUACGUUCG	-1.65 ± 0.091	-0.693 ± 0.11
GUGUAGCAAUAUUACGUUGU	-3.02 ± 0.28	-2.17 ± 0.21
GUGUAGCAAUAUUACGUUUU	-3.32 ± 0.16	-1.45 ± 0.12
GUUAAGCAAUAUUACGAAUG	-2.32 ± 0.24	-1.59 ± 0.21
GUUAAGCAAUAUUACGAGAG	-3.24 ± 0.2	-2.26 ± 0.2
GUUAAGCAAUAUUACGCACG	-0.281 ± 0.18	-0.714 ± 0.18
GUUAAGCAAUAUUACGCAUA	-0.993 ± 0.091	-0.274 ± 0.11
GUUAAGCAAUAUUACGCCCU	-0.813 ± 0.14	-0.242 ± 0.11
GUUAAGCAAUAUUACGCUUG	-2.28 ± 0.14	-0.983 ± 0.15
GUUAAGCAAUAUUACGGGAU	-2.31 ± 0.14	-0.169 ± 0.14
GUUAAGCAAUAUUACGGGCU	-4.09 ± 0.34	-1.85 ± 0.2
GUUAAGCAAUAUUACGGGGG	-3.44 ± 0.34	-2.67 ± 0.27
GUUAAGCAAUAUUACGGUGU	-1.58 ± 0.11	-0.8 ± 0.12
GUUAAGCAAUAUUACGUCCC	0.552 ± 0.49	
GUUAAGCAAUAUUACGUGAG	-0.109 ± 0.052	-0.0542 ± 0.098
GUUCAGCAAUAUUACGACCA	-0.964 ± 0.14	-0.856 ± 0.13
GUUCAGCAAUAUUACGACGA	-1.26 ± 0.21	-0.637 ± 0.18
GUUCAGCAAUAUUACGACUG	-3.57 ± 0.28	-0.988 ± 0.14
GUUCAGCAAUAUUACGAGGC	-2.38 ± 0.48	-1.27 ± 0.2
